From patent US20240327502A1 (Merck Sharp & Dohme, published 2024)

Experiments:
[1] = target: T1, Processed stabilized hMPV PreF trimer (115BV) (human metapneumovirus, strain B2); assay: BLI, mAb on anti-human Fc sensor
T1 construct: also called Processed hMPV PreF trimer; processed PreF

hMPV PostF trimer = target: T2, hMPV PostF trimer (human metapneumovirus, strain B2); assay: BLI, mAb on anti-human Fc sensor
T2 construct: also called MPV PostF (dPFv1)

[2] = target: T1, Processed stabilized hMPV PreF trimer …; assay: BLI, ratio to unprocessed PreF trimer
[3] = target: T3, Unprocessed hMPV PreF trimer (human metapneumovirus, strain B2); assay: BLI, mAb on anti-human Fc sensor
T3 construct: also called Unprocessed hMPV WT PreF trimer; unprocessed hMPV PreF trimeric antigen

| Binder | Octet binding response [1] [nm] | Octet binding response (hMPV PostF trimer) [nm] | processed/unprocessed PreF trimer binding ratio [2] | Octet binding response [3] [nm] |
| --- | --- | --- | --- | --- |
| M3E06 (antibody, V domains shown, IgG) VH: EVQLVESGGGLVQPGGSLRLSCAASGFTFSSYWMSWVRQAPGKGLEWVANIKQDGSEKYYVDSVKGRFTISRDNAKNSLYLQMNSLRAEDTAVYYCARYYYDSSGYYYYYYYYMDVWGKGTTVTVSS VL: not shown | 0.0101 | 0.329 | 0.18 | – |
| M4B03 (antibody, V domains shown, IgG) VH: QVQLVQSGAEVKKPGASVKVSCKASGYIFSNYRMHWVRQAPGQRLEWMGWITAGSGNTRYSEQFQGRVAFTSDTDATTVSMELSGLRFEDTAVYFCAREYNWNDAFPYWGQGTLVIVSS VL: SYVLTQPPSVSVAPGQTARIPCGGNNIGSKSVHWYQQKSGRAPVLVVYDDSDRPPGIPDRFSGSNSGNTATLTINKIEAGDEADYYCHVSDDNSDHVFFGGGTQLTVL | 0.108 | -0.061 | 0.33 | 0.324 |
| M2C08 (antibody, V domains shown, IgG) VH: QVQLVQSGAEVKKPGASVIVSCRASGFTFSLYTMHWVRQAPGQGLEWMGWISADNSNTKYSQKYQDRVTITMDTSATTLFMEISSLRSEDTAVYYCTRGPAYYFDSSGFAFDIWGQGTLVTVSS VL: EIVLTQSPGTLSLSPGERATLSCRASQSVSRTYLGWYQQRPGLAPRLLIYGTSSRATGIPDRFSGSGSGTDFTLTISRLEPEDFATYYCQHFGSSLTFGGGTKVEIK | 0.157 | -0.0185 | 0.38 | 0.415 |
| M3A11 (antibody, V domains shown, IgG) VH: EVQLVESGGGLVQPGGSLRLSCAASGFTFSDYSMNWVRQAPGQGLEWISYISSTGSTIYYADSVRGRFTISRDNAKNSLYLQMNTLRAEDTAVYYCARGKTTVTIWFDPWGQGTLVTVSS VL: SYVLTQPPSVSVAPGQTARITCGGNNIGSKSVHWYQQKPGQAPVLVVYDDSDRPSGIPERFSGSNSGNTATLTISRVEAGDEADYYCQVWHSSSDWVFGGGTRLTVL | – | 0.414 | – | – |
| M2B05 (antibody, V domains shown, IgG) VH: QVQLQQWGAGLLRPSETLSLTCTVYGGSFGGYHWSWIRQSPGKGLEWIGEIDHGGNTNFNPSLKSRVTISVDRSKKQFSLKLTSVTAADTAVYYCARGFGVVINNWFDPWGQGTLVTVSS VL: DIQMTQSPSSLSASVGDRVTITCRASQTINSYLNWYQQKPGKAPTLLIYTVSSLQSGVPSRFSGSGSGTVFSLTISSLQPEDFATYYCQQSYNSPYTFGQGTKLEIK | 0.542 | 0.486 | – | 0.447 |
| M3E05 (antibody, V domains shown, IgG) VH: EVQLVESGGSVIQPGGSLRLSCAASGFSVRTNYMNWVRQAPGKGLEWVSVIYSDGRTYYSDSVKGRFTISRDNSMNNVFLQMNSLRAEDTAVYYCARDPTFYSSSWWYLDHWGQGTQVTVSS VL: SYELTQALSVSVARGQTAKITCGGNNIGVRNVHWYQQKPGQAPVLVIYRDNIRPSGIPERFSGSNSGNMAALTISSAQEGDEADYYCQVWDSNTAHVIFGGGTKLTVL | – | 0.509 | – | 0.126 |
| M3C01 (antibody, V domains shown, IgG) VH: QLQLQESGPGLVKPSETLSLTCTVSGGSISSSSYFWGWIRQPPGKGLEWIGSVFYSGSTYYNPSLKSRVTISVDTPKNQFSLRLSSVTAADTAVYYCARHSWDRWVYWGQGTLVTVSS VL: DIQMTQSPSSVSASVGDRVTITCRASQDISSWLAWYQQKPGKAPKLLIYAASSLQSGVPSRFSGSGSGTDFTLTISSLQPEDFATYYCQQANSFPLTFGGGTKVEIK | – | 0.327 | – | 0.0597 |
| M2C11 (antibody, V domains shown, IgG) VH: QVQLVQSGAEVRKPGASVKVSCKASGYTFTSHDINWVRQAPGQGLEWMGWMNPNSDTTGYAQKFQGRVTMARDISMSTAYMELSSLTSEDTAVYYCARGRHNYYTNGPTRDGFDIWGQGTMVTVSS VL: SYELTQPPSVSVSPGQTATITCSGDDLGNQYANWFQQRPGQSPVLVIYQDNKRPSGIPERFSGSSSGNTATLTISGTQPLDEADYYCQAWDSRTYVFGTGTKVTVL | 0.362 | -0.03 | 1.04 | 0.349 |
| M4A10 (antibody, V domains shown, IgG) VH: QVQLVQSGAEVKKPGASVKVSCKASGYTFNGHYLHWVRQAPGQGLEWMGWINPNSGGTDYAQRFQGRVTMTRGTSISTAYMELSRLTSDDTAVYFCARDNFGFWSASSGRHNWLDSWGQGTLVIVSS VL: NFMLTQPHSVSESPGKTVTISCTRSTGNIASNYVQWYQQRPGSSPTTVIYEDNQRPSAVPDRFSGSIDSSSNSASLTVSGLRTEDEADYYCQSYDSGHHVVFGGGTKLTVL | 0.23 | -0.0388 | 0.71 | 0.325 |
| M3D08 (antibody, V domains shown, IgG) VH: QVQLQESGPGLVKPSETLSLTCSVSGVSISSHYWSWIRQPAGKGLEWIGRLYTSGTTTYNPSLNSRVTMSVDTTNNRLSLRLTSVTAADTAVYYCARDVRLTVFGALHNWFDPWGQGILVTVSS VL: DIQMTQSPSSLSASVGDRVTITCRASQSIGTHLNWYQQQRGRAPKLLVYAASGLQSGVPSRFSGSGSGTYFTLTISSLQPEDFATYYCQQSYSTPSITFGQGSRLDIK | 0.0113 | 0.307 | 0.17 | – |
| M2C01 (antibody, V domains shown, IgG) VH: EVQLVESGGDLAKPGGSLRLSCEASGFTFSNAWMSWVRQAPGKGLEWVGQIKPHTDGATTDYAAPVKGRFTISRDDSKSTLYLRMNILRIEDTAMYYCTTGPRLSLMWGQGTRVTVSS VL: not shown | – | -0.0726 | – | 0.107 |
| M2C05 (antibody, V domains shown, IgG) VH: EVQLLESGGGLVQPGGSLRLSCAGSGFTFSNYAMSWVRQAPGKGLEWVSDINDRGETTHYADSVKGRFTISRDNSKKKLFLQMNDLRAEDTAIYYCTRAYVVLSVYAPKGFDYWGQGTLVSVSS VL: DIQMTQSPSILSASEGDRVTITCRASQSVSNWLAWYQQKSGRAPKLLIYKASSLETGVPSRFSGSGSGTEFTLTINNLQPDDFATYYCQHYNGYPYTFGQGTKLEIK | 0.464 | – | 1.16 | 0.399 |
| M3C06 (antibody, V domains shown, IgG) VH: QVQLVQSGAEVKKPGSSVKVSCKAYGGTLSNYAISWVRQAPGQGLHWMGRIIPVMNVANYADNFQGRVTITADKSTSTAYMELSSLRSEDAAIYYCATARGLGSLEGGDAFDVWGQGTMLTVSS VL: DIVMTQSPDSVAVSLGERATISCKSSLSLLYSSNNKNYLVWYQQKPGQPPKLLFYWASTRESGVPDRFSASGSGTDFTLTISSLQAEDVAVYYCQQYYSTPITFGQGTRLEIR | 0.195 | -0.0338 | 0.93 | 0.208 |
| M3A05 (antibody, V domains shown, IgG) VH: QITLKESGPTLVKPTQTLTLTCTFSGFSLNTGGVSVGWIRQPPGKALEWLALIYWDGDKRYSPSLKSRLTITKDTSKNQVVFTMTNMDPVDTATYYCAHRENSAYIDFWGQGTLVTVSS VL: QSVLTQPPSVSAAPGQKVTISCSGSSSNIGNNYVSWYQQLPGAAPKLLIYDNNKRPSGIPDRFSGSKSGTSASLGITGLQTGDEADYYCGTWDSSLSVGFYVFGTGTKVTVL | 0.0071 | 0.229 | 0.09 | – |
| M1C7 (antibody, V domains shown, IgG; also called MIC7) VH: QVQLVESGGGLVQPGRSLRLSCAASGFTFSSYAMHWVRQAPGKGLEWVAIITYDGSGKYYADSLEGRITISRDDPKSMLYLHMRSLTAEDTAVYYCVKSGSFSSAFWLEDWGQGTLVTVSS VL: EIVLTQSPATLSLSPGERATLSCRASQSISNFVAWYQQKPGQAPRLLIYDASNGATGTPARFSGSGSGTDFTLTISSLEPEDFAVYYCQQRSTWTFGQGTKVEIKR | 0.359 | 0.0541 | 1.15 | 0.312 |
| M2B11 (antibody, V domains shown, IgG) VH: QVQLVQSGTEVKKPGASVKVSCKASGYTFTSHDINWLRQATGQGLEWLGWMNPNSATTGYAQKFQGRVTLTRDISISTAYMELSSLRSDDTAVYYCARNRHYYYADGPTRDAFDIWGQGTVVTVSS VL: SYELTQTPTVSVSPGQTASITCSGDELGHKYTSWYQQKPGQSPVLVVYQDTKRPSGIPERFSGSNSGNTATLTISGTQVMDEADYYCQAWDSGTVLLGGGTKLTVL | 0.498 | -0.0289 | 1.31 | 0.38 |
| M2C06 (antibody, V domains shown, IgG) VH: QVQLVQSGAEVKKPGSSVKVSCRPSGGTFSNDILSWVRQAPGQRLEWMGRIIPLVNMTNIAQKFQGRLTLVADKSTAIVHLELGSLRAEDTAIYYCVRDLPSAGFPAPFDIWGQGTRVTVSA VL: EIVLTQSPGSLSLSPGARATVSCRASQSLNSASLVWYQQRVGQAPRLLMFGASNRATGIPDRFSGSGSGTDFTLTISRLEPEDFAVYYCQQYAFSPPTFGQGTKVEIK | 0.472 | 0.436 | 1.16 | 0.408 |
| M2D08 (antibody, V domains shown, IgG) VH: QVQLVESGGGVVQPGRSLRLSCAASGFVFRFSGMHWIRQAPGKGLQWVAHISDDGSQKYYADSVTGRFAISRDNSRNTLFLEMTGLRGDDTAVYYCARGDYGVSYFLAHWGLGELVIVSS VL: EIVLTQSPATLSLSPGERATLSCRASQNIYNYLAWYQQKPGQAPRLVIYDASNRATGIPARFSGSGSETDFTLTISSLEPEDFAVYYCQQRSDWTFGQGTKLEIK | 0.182 | -0.0414 | 0.44 | 0.416 |
